Laboratory results published in patent publication US20070134249A1 (GENITOPE, published 2007).

Experiments:
Assay in all cases: ELISA
116 = molecular target: T1, 116; parameters: key to grade: 0 = <0.5 OD, 1 = 0.5-1.0 OD, 4 = 1-4 OD
T1 construct: fully human Id protein; also called PIN116
Description: (§1) Before specificity screening, all of the clonal immunogen-positive hybridoma supernatants were re-screened on the immunogen, a non-family member Id protein, and KLH, if animals were immunized with Id protein that has been conjugated KLH. As described above, this screen identifies HC-specific clones but not mAbs against the light chain constant region. Clones identified positive to the immunogen and KLH were […]. Those found positive to the immunogen but not to the non-family member Id protein or KLH were tittered on the immunogen. In addition to normalizing for different binding affinities and concentrations, each hybridoma supernatant was titered on the fully human form of the Id protein used as the immunogen(s) for the V regions. The titer or dilution resulting in an ELISA absorbance of 2.5 to 3 OD after 30 min. incubation time was then used. Hybridoma specificity was determined by screening against available Id proteins expressing the same HV and KV or LV as well as different HV, KV and LV. The final ELISA results are expressed as follows: 0 (<0.5 OD), 1 (0.5-1.0 OD), or 4 (1-4 OD). Positive hybridoma supernatants are categorized according to specificity: anti-Id, anti-constant region (HC, KC or LC), or V region (HV, KV, LV family or family member).
(§2) In general, the fully human Id protein or proteins containing the immunogen V regions were coated onto 96-well ELISA plates at 2.5-5 ug/mL in carbonate buffer pH 9.6 and incubated at 4° C. for up to 14 days. On the day of the ELISA, plates were brought to RT and blocked with Tris-Tween-20, pH 7.6 for 15-60 min. at RT. Following a NaCl and Triton X-100 wash, diluted hybridoma cell culture supernatants were incubated overnight at 4° C. Hybridoma supernatant dilutions ranged from 1:2 to 1:25 and were prepared in PBS with 5% BSA. Plates were washed and incubated with HRP-conjugated goat anti-mouse IgG-specific detecting antibody. A chromogenic substrate (TMB) was used to measure the amount of mouse antibody bound to each well. The reaction was stopped at or before 30 minutes with IN H2SO4 and plates were read immediately. Absorbency readings at 450 nm ranging between 0-4 OD and using Molecular Devices plate reader and SOFTMAX PRO software.

1056 = molecular target: T2, 1056; parameters: key to grade: 0 = <0.5 OD, 1 = 0.5-1.0 OD, 4 = 1-4 OD
T2 construct: H3-48 L2-14; also called PIN1056
Description: as §1, §2

662 = molecular target: T3, 662; parameters: key to grade: 0 = <0.5 OD, 1 = 0.5-1.0 OD, 4 = 1-4 OD
T3 construct: fully human Id protein; also called PIN662
T3 sequence (heavy, as listed by the source): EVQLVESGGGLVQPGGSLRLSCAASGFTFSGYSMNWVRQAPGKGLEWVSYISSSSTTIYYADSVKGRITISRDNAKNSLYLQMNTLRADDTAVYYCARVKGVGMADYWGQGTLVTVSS
Description: as §1, §2

231 = molecular target: T4, 231; parameters: key to grade: 0 = <0.5 OD, 1 = 0.5-1.0 OD, 4 = 1-4 OD
T4 construct: H3-48 L2-14; also called PIN231
Description: as §1, §2

762 = molecular target: T5, 762; parameters: key to grade: 0 = <0.5 OD, 1 = 0.5-1.0 OD, 4 = 1-4 OD
T5 construct: H3-7 L3-10; also called PIN762
Description: as §1, §2

196 = molecular target: T6, 196; parameters: key to grade: 0 = <0.5 OD, 1 = 0.5-1.0 OD, 4 = 1-4 OD
T6 construct: H4-31 L2-23; also called PIN196
Description: as §1, §2

604 = molecular target: T7, 604; parameters: key to grade: 0 = <0.5 OD, 1 = 0.5-1.0 OD, 4 = 1-4 OD
T7 construct: H4-34 L2-8; also called PIN604
Description: as §1, §2

305 = molecular target: T8, 305; parameters: key to grade: 0 = <0.5 OD, 1 = 0.5-1.0 OD, 4 = 1-4 OD
T8 construct: H3-48 L1-40; also called PIN305
Description: as §1, §2

733 = molecular target: T9, 733; parameters: key to grade: 0 = <0.5 OD, 1 = 0.5-1.0 OD, 4 = 1-4 OD
T9 construct: H3-48 L2-14; also called PIN733
Description: as §1, §2

792 = molecular target: T10, 792; parameters: key: 0 = <0.5 OD, 1 = 0.5-1.0 OD, 4 = 1-4 OD
T10 construct: H1-3 K4-1; also called PIN792
Description: as §1, §2

913 = molecular target: T11, 913; parameters: key: 0 = <0.5 OD, 1 = 0.5-1.0 OD, 4 = 1-4 OD
T11 construct: fully human Id protein; also called PIN913
T11 sequence (heavy, as listed by the source): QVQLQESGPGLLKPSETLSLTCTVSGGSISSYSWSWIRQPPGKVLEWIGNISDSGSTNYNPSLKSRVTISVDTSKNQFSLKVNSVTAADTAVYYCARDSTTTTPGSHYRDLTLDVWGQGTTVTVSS
Description: as §1, §2

1088 = molecular target: T12, 1088; parameters: key: 0 = <0.5 OD, 1 = 0.5-1.0 OD, 4 = 1-4 OD
T12 construct: H2-5 K4-1; also called PIN1088
Description: as §1, §2

1175 = molecular target: T13, 1175; parameters: key: 0 = <0.5 OD, 1 = 0.5-1.0 OD, 4 = 1-4 OD
T13 construct: H3-53 K4-1; also called PIN1175
Description: as §1, §2

628 = molecular target: T14, 628; parameters: key: 0 = <0.5 OD, 1 = 0.5-1.0 OD, 4 = 1-4 OD
T14 construct: fully human Id protein; also called PIN628
T14 sequence (VH, as listed by the source, chain 1 of 2): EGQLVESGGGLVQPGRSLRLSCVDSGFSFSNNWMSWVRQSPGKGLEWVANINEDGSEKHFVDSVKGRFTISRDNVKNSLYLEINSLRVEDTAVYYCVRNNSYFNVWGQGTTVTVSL
T14 sequence (VL, as listed by the source, chain 2 of 2): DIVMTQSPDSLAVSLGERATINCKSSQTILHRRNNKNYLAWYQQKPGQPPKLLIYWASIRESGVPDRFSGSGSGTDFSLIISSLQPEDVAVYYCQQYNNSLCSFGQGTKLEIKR
Description: as §1, §2

591 = molecular target: T15, 591; parameters: key: 0 = <0.5 OD, 1 = 0.5-1.0 OD, 4 = 1-4 OD
T15 construct: H3-23 K4-1; also called PIN591
Description: as §1, §2

712 = molecular target: T16, 712; parameters: key: 0 = <0.5 OD, 1 = 0.5-1.0 OD, 4 = 1-4 OD
T16 construct: H3-23 K4-1; also called PIN712
Description: as §1, §2

518 = molecular target: T17, 518; parameters: key: 0 = <0.5 OD, 1 = 0.5-1.0 OD, 4 = 1-4 OD
T17 construct: H4-59 K4-1; also called PIN518
Description: as §1, §2

1145 = molecular target: T18, 1145; parameters: key: 0 = <0.5 OD, 1 = 0.5-1.0 OD, 4 = 1-4 OD
T18 construct: H3-11 K4-1; also called PIN1145
Description: as §1, §2

950 = molecular target: T19, 950; parameters: key: 0 = <0.5 OD, 1 = 0.5-1.0 OD, 4 = 1-4 OD
T19 construct: H4-59 K4-1; also called PIN950
Description: as §1, §2

953 = molecular target: T20, 953; parameters: key: 0 = <0.5 OD, 1 = 0.5-1.0 OD, 4 = 1-4 OD
T20 construct: H5-51 K4-1; also called PIN953
Description: as §1, §2

T1 sequence (VH, as listed by the source, chain 1 of 2): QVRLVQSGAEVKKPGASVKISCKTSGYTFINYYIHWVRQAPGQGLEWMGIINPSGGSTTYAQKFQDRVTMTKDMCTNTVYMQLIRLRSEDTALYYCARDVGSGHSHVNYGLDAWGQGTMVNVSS
T1 sequence (V domain, as listed by the source, chain 2 of 2): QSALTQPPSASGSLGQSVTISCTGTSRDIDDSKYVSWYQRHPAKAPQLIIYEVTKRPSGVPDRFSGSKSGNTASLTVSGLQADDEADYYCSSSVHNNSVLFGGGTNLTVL

Row | binding result 116 | grade 1056 | grade 662 | grade 231 | grade 762 | grade 196 | grade 604 | grade 305 | grade 733 | grade 792 | grade 913 | grade 1088 | grade 1175 | grade 628 | grade 591 | grade 712 | grade 518 | grade 1145 | grade 950 | grade 953 | Binder
1 | no binding | 4 | 4 | 4 | 4 | 4 | 4 | 4 | 4 | – | – | – | – | – | – | – | – | – | – | – | mAb clone 4H11 (antibody, V domains shown, Mouse hybridoma mAb) VH: EVKLVESGGGLVKPGGSLKLSCAASGFAFSNYDMSWVRQTPEKRLEWVATIRSDDSYTYYPDSVKGRFTISRDNARNTLYLQMSSLRSEDTAFYYCARREGNYAMDYWGQGTSVTVSS VL: DIQMTQSPASLSVSVGETVTITCRASENIYSYLAWYQQKKGKSPQLLVYAATNLGDGVPTRFSGSGSGTQYSLKINSLQSEDFGSYYCQHFWGNPLTFGAGTKLELKR
2 | – | – | – | – | – | – | – | – | – | 4 | 4 | 4 | 4 | 4 | 4 | 4 | 4 | 4 | 4 | 4 | mAb clone 12C3 (antibody, V domains shown, Mouse hybridoma mAb, fusions 20/21 (PIN628 V regions)) VH: EVKLVESGGGLVQPGGSLSLSCAASGFTYTDYYMNWVRQPPGKALEWLALIRNKANGYTTEYSASLKGRFTISRDNSQSILYLQMNALRAEDSATYYCVRENINYYFDYWGQGTTLTVSS VL: DIVLTQSPASLAVSLGQRATISCRASESVEYFGASLMQWYQQKSGQPPKLLIRAATNVESGVPARFSGSGSGTDFSLNIHPVEEDDIAMYFCQQSRKVPWTFGGGTKLEIKR
